Data on four molecules can be found in patent US20200317768A1 (published 2020).

One test deals with T1, GST-hMSTN 101-200aa (human, UniProt A1C2U3 101-200 (Pongo pygmaeus entry)).
T1 construct: As GST-hMSTN 1-100aa; also called sixth fragment; not shown: GST tag from the pGEX4.1 vector
T1 sequence: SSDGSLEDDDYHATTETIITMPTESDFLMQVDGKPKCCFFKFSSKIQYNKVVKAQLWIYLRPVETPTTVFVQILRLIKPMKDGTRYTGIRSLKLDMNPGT
The experiment in a line: Western blot on GST tagged fragments. The source says: (§1) Fragments of the N-terminal propeptide coding region of human latent myostatin were cloned into a pGEX4.1 vector so as to produce GST tagged propeptide fragments of 100 amino acid each, with 80 amino acid overlap (FIG. 22A). Protein expression was induced in transformed BL21 competent cells with Overnight Express Autoinduction System (Merck Millipore) and protein was extracted using the BUGBUSTER® protein extraction reagent (Novagen).
(In general: Immunoblotting shows a protein as a band on a membrane.)

For a further test, the target named is T2, GST-hMSTN 121-220aa (human, UniProt A1C2U3 121-220 (Pongo pygmaeus entry)).
T2 construct: As GST-hMSTN 1-100aa; also called seventh fragment; not shown: GST tag from the pGEX4.1 vector
T2 sequence: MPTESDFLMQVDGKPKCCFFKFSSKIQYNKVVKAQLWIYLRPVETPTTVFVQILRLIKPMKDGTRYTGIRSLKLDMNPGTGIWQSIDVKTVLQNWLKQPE
Briefly: Western blot on GST tagged fragments.
Source text: as §1

The target of the next test is T3, GST-hMSTN 141-241aa (human, UniProt A1C2U3 141-241 (Pongo pygmaeus entry)).
T3 construct: As GST-hMSTN 1-100aa; also called eighth fragment; not shown: GST tag from the pGEX4.1 vector
T3 sequence: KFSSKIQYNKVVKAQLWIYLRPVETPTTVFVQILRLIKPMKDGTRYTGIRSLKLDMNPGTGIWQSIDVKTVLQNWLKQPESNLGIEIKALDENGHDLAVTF
Briefly: Western blot on GST tagged fragments.
Source text: as §1

In test [1] the target is T4, Human latent myostatin (human, UniProt O14793 25-266; O14793 267-375).
T4 construct: Biotinylated in the ELISAs; also called human myostatin latent form
T4 sequence 1: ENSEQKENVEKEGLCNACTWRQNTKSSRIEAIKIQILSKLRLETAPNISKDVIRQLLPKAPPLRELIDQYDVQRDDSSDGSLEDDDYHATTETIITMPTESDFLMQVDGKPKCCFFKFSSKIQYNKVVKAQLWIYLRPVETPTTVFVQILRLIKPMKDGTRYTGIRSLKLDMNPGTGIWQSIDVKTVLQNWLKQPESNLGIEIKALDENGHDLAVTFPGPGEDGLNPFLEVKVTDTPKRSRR
T4 sequence 2: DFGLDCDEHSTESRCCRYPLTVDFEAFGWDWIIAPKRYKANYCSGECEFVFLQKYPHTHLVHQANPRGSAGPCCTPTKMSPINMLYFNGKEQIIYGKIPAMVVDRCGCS
Briefly: SPR (BIACORE T200), 37 C, pH7.4, avidity condition (capture 185 RU), 1:1 fit; pH 7.4. Here is the method:
(§2) The kinetic parameters of anti-latent myostatin antibodies against human, cynomolgus monkey (cyno), and mouse latent myostatin were assessed at 37° C. at pH7.4 using a BIACORE® T200 instrument (GE Healthcare). ProA/G (Pierce) was immobilized onto all flow cells of a CM4 chip using amine coupling kit (GE Healthcare). Anti-latent myostatin antibody and analytes were prepared in ACES pH7.4 (20 mM ACES, 150 mM NaCl, 1.2 mM CaCl₂), 0.05% TWEEN® 20, 0.005% NaN₃). […] Then human, cyno, or mouse latent myostatin was injected at 3.125 to 50 nM prepared by two-fold serial dilution, followed by dissociation. The sensor surface was regenerated with 25 mM NaOH. Kinetic parameters were determined by processing and fitting the data to a 1:1 binding model using BIACORE® T200 Evaluation software, version 2.0 (GE Healthcare).
(§3) All experimental settings were the same as in Example 7, except that measurements were also performed in ACES pH5.8 buffer in addition to ACES pH7.4 condition. Some antibodies were only measured against human latent myostatin. Antibody capture level was aimed at 185 RU and 18.5 RU, for avidity and affinity assay, respectively. Kinetic parameters were determined using 1:1 Binding fitting using BIACORE® T200 Evaluation software, version 2.0 (GE Healthcare).
(Surface plasmon resonance follows binding to a sensor surface in real time, without labels.)

For test [2], the target named is T5, Cynomolgus monkey latent myostatin (cynomolgus monkey, UniProt Q95J86 25-266; Q95J86 267-375).
T5 construct: signal 1-24; also called Cyno latent myostatin
T5 sequence 1: T4 sequence 1 with V52A
T5 sequence 2: T4 sequence 2
The test is described as above. Here is the method: as §2, §3

Test [3] concerns the target T6, Mouse latent myostatin (mouse, UniProt O08689 26-267; O08689 268-376).
T6 construct: signal 1-24
T6 sequence 1: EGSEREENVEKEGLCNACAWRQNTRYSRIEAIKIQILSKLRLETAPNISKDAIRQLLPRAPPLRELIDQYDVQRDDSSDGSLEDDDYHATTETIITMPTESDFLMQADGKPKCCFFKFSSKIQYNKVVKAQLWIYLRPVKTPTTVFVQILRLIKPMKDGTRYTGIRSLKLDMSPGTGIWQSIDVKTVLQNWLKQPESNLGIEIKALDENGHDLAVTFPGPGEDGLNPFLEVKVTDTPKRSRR
T6 sequence 2: T4 sequence 2
Described as above. The protocol:
as §2, §3

The target in test [4] is T4, Human latent myostatin. Briefly: SPR (BIACORE T200), 37 C, pH5.8, avidity condition (capture 185 RU), 1:1 fit; pH 5.8. Here is the method: as §2, §3
Test [5] concerns the target T5, Cynomolgus monkey latent myostatin. The test is described as above. Here is the method:
as §2, §3

Test [6] deals with T6, Mouse latent myostatin. The description is as above. Here is the method:
as §2, §3

The target in test [7] is T4, Human latent myostatin. The experiment in a line: SPR (BIACORE T200), 37 C, pH7.4, 1:1 fit; title prints avidity, by the text the affinity condition (capture 18.5 RU). The protocol:
as §2, §3

Test [8] deals with T5, Cynomolgus monkey latent myostatin. Described as above. Here is the method: as §2, §3
The target in test [9] is T6, Mouse latent myostatin. The description is as above. The protocol:
as §2, §3

Test [10] deals with T7, human FcγRIIb constitutively expressed on MDCK cells (human, UniProt P31994 43-310).
T7 sequence (looked up): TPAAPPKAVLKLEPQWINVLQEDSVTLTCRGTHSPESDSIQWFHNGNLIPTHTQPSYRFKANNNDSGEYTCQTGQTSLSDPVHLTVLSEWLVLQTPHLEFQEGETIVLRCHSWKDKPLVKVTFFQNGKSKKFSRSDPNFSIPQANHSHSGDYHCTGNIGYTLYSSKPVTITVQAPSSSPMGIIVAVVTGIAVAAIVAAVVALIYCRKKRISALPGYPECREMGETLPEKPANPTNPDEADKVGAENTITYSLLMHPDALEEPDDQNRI
Briefly: cell-based or functional assay.

Where a chain is given by its changes, count along the chain named.

B1: MST1032 (as tested in Example 26) (antibody, V domains shown)
VH: QSLEESGGRLVTPGGSLTVTCRVSGIDLSSYDISWVRQAPGKGLEWIGIISYAGSTYYASWAKGRFTISKTSTTVDLKMTSLTTEDTATYFCARGVPAYSTGGDLWGPGTLVTVSS
VL: AQVLTQTASSVSAAVGGTVTINCQSSQSVYDNNWLSWFQQKPGQPPKLLIYWASTLASGVPSRFKGSGSGTQFTLTISDLECDDAATYYCAGGYGGGLYAFGGGTKVEIK
As to B1, the binding result with GST-hMSTN 101-200aa, in the test with GST-hMSTN 121-220aa and with GST-hMSTN 141-241aa was “no binding” throughout.

B2: MS_M103205H714-SG1/M103202L861-SK1 (antibody, human IgG1, kappa, V domains shown)
VH: QVTLKESGPVLVKPTETLTLTCTVSGIDLSHTDISWVRQAPGKGLEWVGIISYAGSTYYASWAKGRLTISKDTSKNQVVLTMTNMDPVDTATYYCARGVPAYSHGGDLWGQGTLVTVSS
VL: DIVMTQSPATLSLSPGERATLSCTSSQSVYHNNWLSWFQQKPGQPPKLLIYWASTLAYGVPSRFSGSGSGTDFTLTISSLQPEDAATYYCAGGYGGGRYAFGQGTKVEIKR
notes: also called MS1032LO01-SG1; MSLO-01
Usually koff stands for the first-order rate constant of dissociation. The kon is the second-order rate constant of association. Regarding B2, the Kd with Human latent myostatin [1] is 0.17 nM; in test [2], 0.165 nM; with Mouse latent myostatin [3] it was 0.149 nM; in the test with Human latent myostatin [4], 19.9 nM; in test [5], 8.9 nM; with Mouse latent myostatin [6] it was 6.15 nM. The Kd was found to be 0.788 nM with Human latent myostatin [7], 0.954 nM in [8] and 0.713 nM in the test with Mouse latent myostatin [9]. Besides, the koff with Human latent myostatin [1] amounted to 0.000216 s⁻¹; in test [2], 0.000197 s⁻¹; in the test with Mouse latent myostatin [3], 0.000217 s⁻¹; with Human latent myostatin [4], 0.0242 s⁻¹; in test [5], 0.0068 s⁻¹; with Mouse latent myostatin [6] it was 0.00625 s⁻¹. Also, the values for the koff (in the test with Human latent myostatin [7]; in test [8]; in the test with Mouse latent myostatin [9]) were 0.00129 s⁻¹, 0.0011 s⁻¹ and 0.00107 s⁻¹, respectively. For the same molecule, the kon in the test with Human latent myostatin [1] came to 1.27e+06 M⁻¹ s⁻¹; in test [2] it was 1.19e+06 M⁻¹ s⁻¹; with Mouse latent myostatin [3], 1.45e+06 M⁻¹ s⁻¹; with Human latent myostatin [4], 1.22e+06 M⁻¹ s⁻¹; in [5] it was 764000 M⁻¹ s⁻¹; with Mouse latent myostatin [6] it was 1.02e+06 M⁻¹ s⁻¹. Besides, the figures for the association rate constant (kon) (in the test with Human latent myostatin [7]; in test [8]; with Mouse latent myostatin [9]) were 1.64e+06 M⁻¹ s⁻¹, 1.15e+06 M⁻¹ s⁻¹ and 1.5e+06 M⁻¹ s⁻¹, respectively.

B3: MS103240H795-TT14/M103202L1045-SK1 (antibody, human IgG1, kappa)
heavy: QVQLVESGGGLVQPGGSLRLSCAVSGIDLSHDDISWVRQAPGKGLEWVSIISYAGSTYYASWAKGRLTISKDTSKNQVVLTMTNMDPVDTATYYCARGVPAYSHGGDLWGQGTLVTVSSASTKGPSVFPLAPSSKSTSGGTAALGCLVKDYFPEPVTVSWNSGALTSGVHTFPAVLQSSGLYSLSSVVTVPSSSLGTQTYICNVNHKPSNTKVDKKVEPKSCDKTHTCPPCPAPEYLGGDSVFLFPPKPKDVLMISRTPEVTCVVIDVSHEDPEVKFNWYVDGVEVHNAKTKPREEQYNSTYRVVSVLPVLHQDWLNGKEYKCKVSNKALPKPIEKTISKAKGQPREPQVYTLPPSREEMTKNQVSLTCLVKGFYPSDIAVEWESNGQPENNYKTTPPVLDSDGSFFLYSKLTVDKSRWQQGNVFSCSVMHEALHNHYTQKSLSLSP
light: DIVMTQSPATLSLSPGERATLSCTTSQSVYHENWLSWFQQKPGQPPKLLIYWASTLAYGVPSRFSGSGSGTDFTLTISSLQPEDAATYYCAGGYGGGRYAFGQGTKVEIKRTVAAPSVFIFPPSDEQLKSGTASVVCLLNNFYPREAKVQWKVDNALQSGNSQESVTEQDSKDSTYSLSSTLTLSKADYEKHKVYACEVTHQGLSSPVTKSFNRGEC
For B3, in [10], the “cell imaging: fluorescence intensity of labelled human latent myostatin taken up as antigen-antibody complex into MDCK cells expressing human FcγRIIb, relative to SG1” value came to 7.5 fold.

B4: MS103240H795-TT33/M103202L1045-SK1 (antibody, human IgG1, kappa)
heavy: B3 heavy with Q313R, D415K
light: B3 light
With B4, the “cell imaging: uptake of labelled antigen-antibody complex into MDCK cells expressing human FcγRIIb, relative to SG1” value in [10] was found to be 36 fold.
